Like-named read-outs stand apart in the source and are kept apart here.
B1: bispecific, monovalent 1+2 anti-FAP, anti-4-1BB lipocalin huIgG1 PGLALA antigen binding molecule (bispecific antibody)
heavy 1: DKTHTCPPCPAPEAAGGPSVFLFPPKPKDTLMISRTPEVTCVVVDVSHEDPEVKFNWYVDGVEVHNAKTKPREEQYNSTYRVVSVLTVLHQDWLNGKEYKCKVSNKALGAPIEKTISKAKGQPREPQVCTLPPSRDELTKNQVSLSCAVKGFYPSDIAVEWESNGQPENNYKTTPPVLDSDGSFFLVSKLTVDKSRWQQGNVFSCSVMHEALHNHYTQKSLSLSPGGGGGSGGGGSGGGGSQDSTSDLIPAPPLSKVPLQQNFQDNQFHGKWYVVGQAGNIRLREDKDPIKMMATIYELKEDKSYDVTMVKFDDKKCMYDIWTFVPGSQPGEFTLGKIKSFPGHTSSLVRVVSTNYNQHAMVFFKFVFQNREEFYITLYGRTKELTSELKENFIRFSKSLGLPENHIVFPVPIDQCIDG
heavy 2: not shown
light: EIVLTQSPGTLSLSPGERATLSCRASQSVTSSYLAWYQQKPGQAPRLLINVGSRRATGIPDRFSGSGSGTDFTLTISRLEPEDFAVYYCQQGIMLPPTFGQGTKVEIKRTVAAPSVFIFPPSDEQLKSGTASVVCLLNNFYPREAKVQWKVDNALQSGNSQESVTEQDSKDSTYSLSSTLTLSKADYEKHKVYACEVTHQGLSSPVTKSFNRGEC
notes: also called FAP (4B9) x 4-1BB lipocalin huIgG1 PG LALA 1+2; 1+2 FAP(4B9) x 4-1BB lipocalin huIgG1 PGLALA
B2: FAP (4B9) huIgG1 PG LALA antibody (antibody, V domains shown)
VH: EVQLLESGGGLVQPGGSLRLSCAASGFTFSSYAMSWVRQAPGKGLEWVSAIIGSGASTYYADSVKGRFTISRDNSKNTLYLQMNSLRAEDTAVYYCAKGWFGGFNYWGQGTLVTVSS
VL: EIVLTQSPGTLSLSPGERATLSCRASQSVTSSYLAWYQQKPGQAPRLLINVGSRRATGIPDRFSGSGSGTDFTLTISRLEPEDFAVYYCQQGIMLPPTFGQGTKVEIK
notes: the control is a human IgG1 with P329G, L234A, L235A (PG LALA)
B3: bispecific, bivalent 2+2 anti-FAP, anti-4-1BB lipocalin huIgG1 PGLALA antigen binding molecule (bispecific antibody)
heavy: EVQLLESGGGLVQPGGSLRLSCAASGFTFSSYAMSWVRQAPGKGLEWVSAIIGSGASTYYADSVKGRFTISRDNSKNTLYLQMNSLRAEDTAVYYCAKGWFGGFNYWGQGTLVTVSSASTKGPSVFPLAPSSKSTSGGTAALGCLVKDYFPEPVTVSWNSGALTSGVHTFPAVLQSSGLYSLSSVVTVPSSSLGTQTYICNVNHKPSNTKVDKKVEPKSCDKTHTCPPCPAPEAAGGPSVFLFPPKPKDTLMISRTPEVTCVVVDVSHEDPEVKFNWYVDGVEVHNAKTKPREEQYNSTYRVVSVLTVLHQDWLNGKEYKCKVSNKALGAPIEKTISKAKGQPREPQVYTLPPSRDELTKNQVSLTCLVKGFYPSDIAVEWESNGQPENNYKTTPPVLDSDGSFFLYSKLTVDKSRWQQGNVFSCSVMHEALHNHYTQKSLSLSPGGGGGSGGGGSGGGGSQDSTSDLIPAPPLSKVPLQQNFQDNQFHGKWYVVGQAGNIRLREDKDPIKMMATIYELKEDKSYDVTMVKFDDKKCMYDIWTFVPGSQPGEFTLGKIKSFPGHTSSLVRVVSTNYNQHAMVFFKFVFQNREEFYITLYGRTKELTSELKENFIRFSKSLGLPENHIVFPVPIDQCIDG
light: B1 light
notes: also called FAP (4B9) x 4-1BB lipocalin huIgG1 PG LALA 2+2; 2+2 FAP(4B9) x 4-1BB lipocalin huIgG1 PGLALA
B4: 2+2 FAP(4B9) x 4-1BB lipocalin huIgG4 SP molecule (bispecific antibody)
heavy: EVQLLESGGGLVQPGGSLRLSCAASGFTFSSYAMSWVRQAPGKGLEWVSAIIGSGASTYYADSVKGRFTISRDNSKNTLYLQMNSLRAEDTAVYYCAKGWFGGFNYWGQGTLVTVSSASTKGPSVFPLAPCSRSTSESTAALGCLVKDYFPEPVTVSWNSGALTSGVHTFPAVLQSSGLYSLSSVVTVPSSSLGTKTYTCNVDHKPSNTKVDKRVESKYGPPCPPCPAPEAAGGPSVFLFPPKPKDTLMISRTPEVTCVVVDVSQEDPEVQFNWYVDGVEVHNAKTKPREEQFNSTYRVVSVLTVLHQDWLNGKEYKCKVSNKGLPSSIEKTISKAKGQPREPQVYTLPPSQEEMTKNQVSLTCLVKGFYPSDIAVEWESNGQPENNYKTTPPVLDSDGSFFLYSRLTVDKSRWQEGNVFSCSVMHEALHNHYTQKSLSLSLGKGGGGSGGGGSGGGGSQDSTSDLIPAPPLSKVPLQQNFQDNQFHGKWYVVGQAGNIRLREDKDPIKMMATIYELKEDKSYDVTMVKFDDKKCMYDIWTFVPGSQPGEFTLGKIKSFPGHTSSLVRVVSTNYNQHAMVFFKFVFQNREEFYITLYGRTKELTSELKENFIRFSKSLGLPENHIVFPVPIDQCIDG
light: B1 light
notes: Comparison molecule; also called FAP (4B9) x 4-1BB lipocalin huIgG4 SP 2+2; FAP (4B9) anti-4-1BB lipocalin huIgG4 SP 2+2
B5: bispecific, monovalent 1+2 anti-HER2, anti-4-1BB lipocalin huIgG1 PGLALA antigen binding molecule (bispecific antibody)
heavy 1: B1 heavy 1
heavy 2: not shown
light: not shown
notes: also called HER2 (TRAS) x 4-1BB lipocalin huIgG1 PG LALA 1+2; 1+2 HER2 x 4-1BB lipocalin huIgG1 PGLALA

What was measured:
[1] = biological target: T1, human 4-1BB (CD137), cell-surface-expressed on Jurkat-hu4-1BB-NFkB-luc2 reporter cell line (human, UniProt Q07011 24-186); test: cell-based or functional assay
[2] = biological target: T2, human Fibroblast Activation Protein (FAP), cell-surface-expressed on NIH/3T3-huFAP clone 19 cells (human, UniProt Q12884 1-760); test: flow cytometry, NIH/3T3-huFAP clone 19 cells, gMFI curve
T2 construct: also called FAP-expressing cells
Description: (§1) Plates were incubated for 30 minutes at 4° C. and washed once with 200 μL, 4° C. cold DPBS buffer. […] Cells were washed twice with 200 μL 4° C. DPBS buffer and then resuspended in 50 μL/well DPBS containing 1% Formaldehyde for fixation. The same or the next day cells were resuspended in 100 μL FACS-buffer and acquired using MACSQuant Analyzer 10 (Miltenyi Biotec) or Canto II (BD).

[3] = biological target: T1, human 4-1BB (CD137), …; test: flow cytometry, Jurkat-hu4-1BB-NFkB-luc2 cells, PE anti-human Fc detection
Description: (§2) For binding to cell-surface-expressed human 4-1BB (CD137) Jurkat-hu4-1BB-NFκB-luc2 reporter cell line (Promega, Germany) was used. […] Plates were incubated for 30 minutes at 4° C. and washed once with 200 μL 4° C. cold DPBS buffer. […] Cells were washed twice with 200 μL 4° C. FACS buffer and then resuspended in 50 μL/well DPBS containing 1% Formaldehyde for fixation. The same or the next day cells were resuspended in 100 μL FACS-buffer and acquired using MACSQuant Analyzer 10 (Miltenyi Biotec) or Cantoll (BD).

[4] = biological target: T1, human 4-1BB (CD137), …; test: flow cytometry, Jurkat-hu4-1BB-NFkB-luc2 cells, gMFI curve
Description: as §2

[5] = biological target: T2, human Fibroblast Activation Protein …; test: flow cytometry, NIH/3T3-huFAP clone 19 cells, PE anti-human Fc detection
Description: as §1

[6] = biological target: T1, human 4-1BB (CD137), …; test: cell-based or functional assay; design: AUC of activation curve, NFκB-luciferase in Jurkat-hu4-1BB-NFκB-luc2, crosslinking by WM-266-4 cells: unit not given beside the values
[7] = biological target: T1, human 4-1BB (CD137), …; test: flow cytometry, Jurkat-hu4-1BB-NFkB-luc2 cells, PE anti-human Fc detection; remark: listed apart in the source
Description: (§3) For binding to cell-surface-expressed human 4-1BB (CD137) Jurkat-hu4-1BB-NFkB-luc2 reporter cell line (Promega, Germany) was used. […] Plates were incubated for 30 minutes at 4° C. and washed once with 200 μL 4° C. cold DPBS buffer. […] Cells were washed twice with 200 μL 4° C. FACS buffer and then resuspended in 50 DPBS containing 1% Formaldehyde for fixation.

[8] = biological target: T1, human 4-1BB (CD137), …; test: cell-based or functional assay; design: unit not given beside the values
[9] = biological target: T1, human 4-1BB (CD137), …; test: flow cytometry, Jurkat-hu4-1BB-NFkB-luc2 cells, gMFI curve; remark: listed apart in the source
Description: as §3

[10] = biological target: T1, human 4-1BB (CD137), …; test: cell-based or functional assay; remark: listed apart in the source

Binder	EC50 of activation curve, NFκB-luciferase in Jurkat-hu4-1BB-NFκB-luc2, crosslinking by NIH/3T3-huFAP clone 19 cells [1] [nM]	EC50 of activation curve, NFκB-luciferase in Jurkat-hu4-1BB-NFκB-luc2, crosslinking by WM-266-4 cells [1] [nM]	Area under the curve (AUC) of binding curve [2]	EC50 [3] [nM]	Area under the curve (AUC) of binding curve [4]	EC50 [5] [nM]	AUC of activation curve, NFκB-luciferase in Jurkat-hu4-1BB-NFκB-luc2, crosslinking by NIH/3T3-huFAP clone 19 cells [6]	AUC of activation curve, NFκB-luciferase in Jurkat-hu4-1BB-NFκB-luc2, crosslinking by WM-266-4 cells [6]	EC50 [7] [nM]	AUC of activation curve, NFκB-luciferase in Jurkat-hu4-1BB-NFκB-luc2, crosslinking by KPL4 cells [8]	AUC of activation curve, NFκB-luciferase in Jurkat-hu4-1BB-NFκB-luc2, crosslinking by NCI-N87 cells [8]	AUC of activation curve, NFκB-luciferase in Jurkat-hu4-1BB-NFκB-luc2, crosslinking by SK-Br3 cells [8]	Area under the curve (AUC) of binding curve [9]	EC50 of activation curve, NFκB-luciferase in Jurkat-hu4-1BB-NFκB-luc2, crosslinking by KPL4 cells [10] [nM]	EC50 of activation curve, NFκB-luciferase in Jurkat-hu4-1BB-NFκB-luc2, crosslinking by NCI-N87 cells [10] [nM]	EC50 of activation curve, NFκB-luciferase in Jurkat-hu4-1BB-NFκB-luc2, crosslinking by SK-Br3 cells [10] [nM]
B1	0.02	0.07	32500	2.39	681	2.88	93200	37400								
B2			30400		75	1.59	521	384								
B3	0.04	0.02	28800	2.09	746	2.01	65500	20400								
B4	0.12	0.02	21000	1.72	694	1.19	55200	11700								
B5									6.95	11400	12100	3960	2100	0.19	0.15	0.33

— US20220025069A1 (Hoffmann-La Roche, published 2022)
